From the supplement of paper PMC7877785
± gives the uncertainty stated by the source.

Test: self-splicing fitness, log relative to wild type (ln ratio); higher = more splicing; Tetrahymena group I intron in knt gene, E. coli kanamycin selection, DiMSum; sequences stand for … in CUCUCU…GGAGGGAAAAGUUAUCAGGCAUGCACCUGGUAGCUAGUCUUUAAACCAAUAGAUUGCAUCGGUUUAAAAGGCAAGACCGUCAAAUUGCGGGAAAGGGGUCAACAGCCGUUCAGUACCAAGUCUCAGGGGAAACUUUGAGAUGGCCUUGCAAAGGGUAUGGUAAUAAGCUGACGGACAUGGUCCUAACCACGCAGCCAAGUCCUAAGUCAACAGAUCUUCUGUUGAUAUGGAUGCAGUUCACAGACUAAAUGUCGGUCGGGGAAGAUGUAUUCUUCUCAUAAGAUAUAGUCGGACCUCUCCUUAAUGGGAGCUAGCGGAUGAAGUGAUGCAACACUGGAGCCGCUGGGAACUAAUUUGUAUGCGAAAGUAUAUUGAUUAGUUUUGGAGUACUCGUGGUCG
Method in brief: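 Six replicate transformations of E. coli BL21(DE3) with a pET-22b(+) library were grown overnight at 37°C or 30°C. The library randomised all eight P1ex-region intron nucleotides, the intron lying in the knt kanamycin-resistance gene, and plates were LB agar with or without 25 μg/mL kanamycin plus 100 μg/mL carbenicillin, 50 μM IPTG and 0.2% rhamnose. Pooled colonies were amplicon-sequenced on an Illumina HiSeq 2500, and fitness is the DiMSum error-weighted combination of wild-type-normalised replicate fold changes, kanamycin versus none.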

Sequence: UCUCAGCAAUAUUACGGAUA
- self-splicing fitness (ln) (30 °C): -1.12 ± 0.16
- self-splicing fitness (ln) (37 °C): 0.0308 ± 0.15

Sequence: UGAGAGCAAUAUUACGACCA
- self-splicing fitness (ln) (30 °C): -1.91 ± 0.14
- self-splicing fitness (ln) (37 °C): -1.14 ± 0.21

Sequence: GUACAGCAAUAUUACGGAAG
- self-splicing fitness (ln) (30 °C): -1.45 ± 0.11
- self-splicing fitness (ln) (37 °C): -3.01 ± 0.25

Sequence: CCCGAGCAAUAUUACGUUUC
- self-splicing fitness (ln) (30 °C): -3.44 ± 0.2
- self-splicing fitness (ln) (37 °C): -3.54 ± 0.24

Sequence: AGGUAGCAAUAUUACGCGGA
- self-splicing fitness (ln) (30 °C): -2.062 ± 0.019
- self-splicing fitness (ln) (37 °C): -1.09 ± 0.033

Sequence: ACUAAGCAAUAUUACGACAU
- self-splicing fitness (ln) (30 °C): -0.431 ± 0.011
- self-splicing fitness (ln) (37 °C): -0.0773 ± 0.032

Sequence: CAGCAGCAAUAUUACGGACC
- self-splicing fitness (ln) (37 °C): -1.84 ± 0.34

Sequence: CUUUAGCAAUAUUACGAUAG
- self-splicing fitness (ln) (30 °C): -0.991 ± 0.11
- self-splicing fitness (ln) (37 °C): -0.782 ± 0.14

Sequence: UGGAAGCAAUAUUACGAACU
- self-splicing fitness (ln) (30 °C): 0.00939 ± 0.14
- self-splicing fitness (ln) (37 °C): -0.029 ± 0.13

Sequence: GUGCAGCAAUAUUACGUUUC
- self-splicing fitness (ln) (30 °C): -3.02 ± 0.11
- self-splicing fitness (ln) (37 °C): -0.289 ± 0.11

Sequence: GGUGAGCAAUAUUACGCGGC
- self-splicing fitness (ln) (30 °C): -2.2 ± 0.27
- self-splicing fitness (ln) (37 °C): -1.9 ± 0.28

Sequence: UGCCAGCAAUAUUACGAGUU
- self-splicing fitness (ln) (30 °C): -2.53 ± 0.17
- self-splicing fitness (ln) (37 °C): -0.56 ± 0.14

Sequence: AAUCAGCAAUAUUACGCCGA
- self-splicing fitness (ln) (30 °C): -1.17 ± 0.09
- self-splicing fitness (ln) (37 °C): -0.332 ± 0.11

Sequence: CCGCAGCAAUAUUACGUUUU
- self-splicing fitness (ln) (30 °C): -3.13 ± 0.13
- self-splicing fitness (ln) (37 °C): -3.26 ± 0.2

Sequence: UACUAGCAAUAUUACGCGUC
- self-splicing fitness (ln) (30 °C): -2.73 ± 0.14
- self-splicing fitness (ln) (37 °C): -1.81 ± 0.14

Sequence: GGCUAGCAAUAUUACGUUAU
- self-splicing fitness (ln) (30 °C): -0.733 ± 0.072
- self-splicing fitness (ln) (37 °C): -0.394 ± 0.091

Sequence: GAGAAGCAAUAUUACGAGCC
- self-splicing fitness (ln) (30 °C): -1.03 ± 0.097
- self-splicing fitness (ln) (37 °C): -0.808 ± 0.15

Sequence: GACCAGCAAUAUUACGUAGA
- self-splicing fitness (ln) (30 °C): 0.284 ± 0.056
- self-splicing fitness (ln) (37 °C): 0.219 ± 0.074

Sequence: GUCCAGCAAUAUUACGUCUU
- self-splicing fitness (ln) (30 °C): -0.409 ± 0.081
- self-splicing fitness (ln) (37 °C): 0.275 ± 0.092

Sequence: CUGCAGCAAUAUUACGCUCU
- self-splicing fitness (ln) (30 °C): -3.52 ± 0.41
- self-splicing fitness (ln) (37 °C): -2.27 ± 0.25

Sequence: CAACAGCAAUAUUACGUGCU
- self-splicing fitness (ln) (30 °C): -3.48 ± 0.13
- self-splicing fitness (ln) (37 °C): -2.27 ± 0.12

Sequence: CGCUAGCAAUAUUACGACAG
- self-splicing fitness (ln) (30 °C): -0.148 ± 0.059
- self-splicing fitness (ln) (37 °C): 0.297 ± 0.076

Sequence: UGUCAGCAAUAUUACGCAAC
- self-splicing fitness (ln) (30 °C): -2.59 ± 0.33
- self-splicing fitness (ln) (37 °C): -1.26 ± 0.28

Sequence: CGUUAGCAAUAUUACGUAAU
- self-splicing fitness (ln) (30 °C): -2.88 ± 0.24
- self-splicing fitness (ln) (37 °C): -1.63 ± 0.25

Sequence: AUUUAGCAAUAUUACGCCGC
- self-splicing fitness (ln) (30 °C): -1.8 ± 0.41
- self-splicing fitness (ln) (37 °C): -1.82 ± 0.48

Sequence: GGUGAGCAAUAUUACGAAGG
- self-splicing fitness (ln) (37 °C): -2.87 ± 0.4

Sequence: AAUCAGCAAUAUUACGAUCC
- self-splicing fitness (ln) (30 °C): 0.138 ± 0.13
- self-splicing fitness (ln) (37 °C): -0.291 ± 0.17

Sequence: UUUUAGCAAUAUUACGUGGA
- self-splicing fitness (ln) (30 °C): -2.5 ± 0.18
- self-splicing fitness (ln) (37 °C): -0.992 ± 0.11

Sequence: UCGCAGCAAUAUUACGUCGA
- self-splicing fitness (ln) (30 °C): -1.81 ± 0.13
- self-splicing fitness (ln) (37 °C): -2.03 ± 0.18

Sequence: AGUUAGCAAUAUUACGUGGA
- self-splicing fitness (ln) (30 °C): -1.87 ± 0.13
- self-splicing fitness (ln) (37 °C): -1.58 ± 0.12

Sequence: ACCGAGCAAUAUUACGUAGU
- self-splicing fitness (ln) (30 °C): -3.62 ± 0.18
- self-splicing fitness (ln) (37 °C): -2.26 ± 0.15

Sequence: CCUAAGCAAUAUUACGACAG
- self-splicing fitness (ln) (30 °C): -0.604 ± 0.081
- self-splicing fitness (ln) (37 °C): -1 ± 0.11

Sequence: AGGUAGCAAUAUUACGUCCU
- self-splicing fitness (ln) (30 °C): -3.01 ± 0.027
- self-splicing fitness (ln) (37 °C): -2.01 ± 0.041

Sequence: GUCGAGCAAUAUUACGCACU
- self-splicing fitness (ln) (30 °C): -1.47 ± 0.14
- self-splicing fitness (ln) (37 °C): -0.953 ± 0.18

Sequence: UUACAGCAAUAUUACGAAAU
- self-splicing fitness (ln) (30 °C): -3.69 ± 0.34
- self-splicing fitness (ln) (37 °C): -2.59 ± 0.33

Sequence: UAGCAGCAAUAUUACGUCAA
- self-splicing fitness (ln) (30 °C): -1.79 ± 0.12
- self-splicing fitness (ln) (37 °C): -1.21 ± 0.11

Sequence: UUGGAGCAAUAUUACGCAGU
- self-splicing fitness (ln) (30 °C): -1.93 ± 0.34
- self-splicing fitness (ln) (37 °C): -2.84 ± 0.48

Sequence: GGAUAGCAAUAUUACGCUGA
- self-splicing fitness (ln) (30 °C): -1.13 ± 0.13
- self-splicing fitness (ln) (37 °C): -1.19 ± 0.14

Sequence: AUGGAGCAAUAUUACGGGUC
- self-splicing fitness (ln) (30 °C): -4.63 ± 0.29
- self-splicing fitness (ln) (37 °C): -3.52 ± 0.28

Sequence: UAGAAGCAAUAUUACGCUAU
- self-splicing fitness (ln) (30 °C): -4.05 ± 0.27
- self-splicing fitness (ln) (37 °C): -3.13 ± 0.27

Sequence: GGUCAGCAAUAUUACGAGUC
- self-splicing fitness (ln) (30 °C): -1.51 ± 0.09
- self-splicing fitness (ln) (37 °C): -0.893 ± 0.1

Sequence: GGGCAGCAAUAUUACGGCCG
- self-splicing fitness (ln) (30 °C): -1.5 ± 0.16
- self-splicing fitness (ln) (37 °C): -1.59 ± 0.26

Sequence: UAUUAGCAAUAUUACGGUCA
- self-splicing fitness (ln) (30 °C): -0.76 ± 0.1
- self-splicing fitness (ln) (37 °C): -0.0892 ± 0.095

Sequence: GGUGAGCAAUAUUACGCCGU
- self-splicing fitness (ln) (30 °C): -2.63 ± 0.42

Sequence: AACUAGCAAUAUUACGAUCA
- self-splicing fitness (ln) (30 °C): -0.213 ± 0.099
- self-splicing fitness (ln) (37 °C): -0.0939 ± 0.11

Sequence: UGGCAGCAAUAUUACGCUGG
- self-splicing fitness (ln) (30 °C): -3.47 ± 0.33
- self-splicing fitness (ln) (37 °C): -2.53 ± 0.29

Sequence: AUAAAGCAAUAUUACGAAAC
- self-splicing fitness (ln) (30 °C): -2.47 ± 0.19
- self-splicing fitness (ln) (37 °C): -1.18 ± 0.32

Sequence: GUUAAGCAAUAUUACGCGAA
- self-splicing fitness (ln) (30 °C): -2.09 ± 0.21
- self-splicing fitness (ln) (37 °C): 0.0507 ± 0.2

Sequence: UCUUAGCAAUAUUACGGAUG
- self-splicing fitness (ln) (30 °C): -3.74 ± 0.28
- self-splicing fitness (ln) (37 °C): -1.76 ± 0.17

Sequence: AUUCAGCAAUAUUACGCUCA
- self-splicing fitness (ln) (30 °C): -0.0142 ± 0.092
- self-splicing fitness (ln) (37 °C): -0.0382 ± 0.14

Sequence: CCGCAGCAAUAUUACGUUGU
- self-splicing fitness (ln) (30 °C): -3.23 ± 0.16
- self-splicing fitness (ln) (37 °C): -3.8 ± 0.26

Sequence: AUGAAGCAAUAUUACGUCAU
- self-splicing fitness (ln) (30 °C): -2.43 ± 0.093
- self-splicing fitness (ln) (37 °C): -1.19 ± 0.083

Sequence: CGCGAGCAAUAUUACGCAUA
- self-splicing fitness (ln) (30 °C): -1.87 ± 0.32
- self-splicing fitness (ln) (37 °C): -2.14 ± 0.43

Sequence: CUUCAGCAAUAUUACGAGUU
- self-splicing fitness (ln) (30 °C): -3.14 ± 0.2
- self-splicing fitness (ln) (37 °C): -2.03 ± 0.2

Sequence: AUUAAGCAAUAUUACGUCAG
- self-splicing fitness (ln) (30 °C): -3.01 ± 0.24
- self-splicing fitness (ln) (37 °C): -1.85 ± 0.21

Sequence: UGGAAGCAAUAUUACGACCC
- self-splicing fitness (ln) (30 °C): -0.0757 ± 0.24
- self-splicing fitness (ln) (37 °C): -0.147 ± 0.25

Sequence: ACUAAGCAAUAUUACGCACU
- self-splicing fitness (ln) (30 °C): -0.0279 ± 0.082
- self-splicing fitness (ln) (37 °C): -0.417 ± 0.08

Sequence: GCUGAGCAAUAUUACGGAGU
- self-splicing fitness (ln) (37 °C): -2.38 ± 0.31

Sequence: UUACAGCAAUAUUACGGUCA
- self-splicing fitness (ln) (30 °C): -0.595 ± 0.075
- self-splicing fitness (ln) (37 °C): -0.209 ± 0.088

Sequence: UUGAAGCAAUAUUACGACGU
- self-splicing fitness (ln) (30 °C): 0.216 ± 0.046
- self-splicing fitness (ln) (37 °C): 0.439 ± 0.06

Sequence: AUAAAGCAAUAUUACGCAUA
- self-splicing fitness (ln) (30 °C): -1.34 ± 0.088
- self-splicing fitness (ln) (37 °C): -0.0324 ± 0.11
